Like-named read-outs stand apart in the source and are kept apart here.
Experiments:
[1] = biological target: T1, FBF-2 RBD + CT (Caenorhabditis elegans, UniProt Q09312); assay: ITC, peptide into FBF-2 RBD + CT, no RNA; assay type: binding, C. elegans; conditions: 20 °C, pH 7.4
T1 construct: A cDNA fragment encoding C. elegans FBF-2 RBD + CT (residues 164-632) was cloned into the pSMT3 vector; His6-SUMO (N, cleaved yes); made in house; host or cells: E. coli BL21-CodonPlus (DE3)-RIL
T1 sequence (Q09312 whole entry, looked up): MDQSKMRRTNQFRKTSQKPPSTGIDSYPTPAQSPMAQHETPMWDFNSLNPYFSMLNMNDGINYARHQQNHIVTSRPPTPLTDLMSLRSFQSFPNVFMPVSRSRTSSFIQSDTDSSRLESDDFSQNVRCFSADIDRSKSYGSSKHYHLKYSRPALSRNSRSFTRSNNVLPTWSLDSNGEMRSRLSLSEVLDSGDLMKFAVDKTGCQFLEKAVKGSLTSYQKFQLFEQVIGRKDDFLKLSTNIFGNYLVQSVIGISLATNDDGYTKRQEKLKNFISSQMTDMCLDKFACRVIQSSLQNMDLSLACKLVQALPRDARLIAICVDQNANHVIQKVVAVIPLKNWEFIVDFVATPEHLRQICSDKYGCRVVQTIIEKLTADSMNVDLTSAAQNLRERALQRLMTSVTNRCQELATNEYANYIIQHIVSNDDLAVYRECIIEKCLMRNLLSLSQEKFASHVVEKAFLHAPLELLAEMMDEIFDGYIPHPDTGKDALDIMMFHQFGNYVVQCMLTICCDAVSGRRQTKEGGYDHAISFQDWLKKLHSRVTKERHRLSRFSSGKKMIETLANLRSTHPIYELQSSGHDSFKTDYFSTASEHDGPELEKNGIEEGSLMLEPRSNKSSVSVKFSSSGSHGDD

[2] = biological target: T2, FBF-2 RBD+CT Loop6A (Caenorhabditis elegans, UniProt Q09312, D594A/E592A/E597A/E599A/E604A/E605A); assay: ITC, peptide into FBF-2 RBD + CT Loop6A, no RNA; assay type: binding, C. elegans; conditions: 20 °C, pH 7.4
T2 construct: A cDNA fragment encoding C. elegans FBF-2 RBD + CT (residues 164-632) was cloned into the pSMT3 vector; His6-SUMO (N, cleaved yes); made in house; host or cells: E. coli BL21-CodonPlus (DE3)-RIL (as for wild type)
Experimental: Experiments were performed at 20 °C using a MicroCal PEAQ-ITC Automated (Malvern Instruments) with a 200-μL standard cell and a 40-μL titration syringe. FBF-2 and LST-1 variants were prepared in a buffer of 20 mM HEPES pH 7.4, 150 mM NaCl, and 0.5 mM TCEP by gel filtration. LST-1 (100–400 µM) was titrated from the syringe into the cell containing FBF-2 (10–30 µM) in 2 µl aliquots. Experiments were performed in duplicate due to the limitation of the amount of protein needed. Data were analyzed using the MicroCal PEAQ-ITC Analysis Software (version 1.40) provided by the manufacturer with the one-site model (Table S3).
Supplementary Table 3. Protein interaction affinities, stoichiometries, and thermodynamic parameters between FBF-2 CT/LST-1 variants and FBF-2 measured by ITC. Two technical replicates (n=2 independent experiments) were performed for each analysis with similar results, and the values are shown for each replicate. Source data are provided as a Source Data file. […]
RBD+CT LST-1 A none Not detected
RBD FBF-2 CT none Not detected
1 Reported previously 18.

[3] = biological target: T3, FBF-2 RBD (Caenorhabditis elegans, UniProt Q09312); conditions: reported previously, cited from earlier work
T3 construct: The FBF-2 RBD protein (residue 164-575) was purified as described previously; His6-SUMO (N, cleaved yes); made in house; host or cells: E. coli BL21-CodonPlus (DE3)-RIL (host inferred: b50 says the procedure was otherwise the same as for RBD + CT)
T3 sequence (Q09312 whole entry, looked up): T1 sequence (Q09312 whole entry, looked up)
Excerpt: Given that the core residues of three distinct PIMs—FBF-2 CT, LST-1 A, and LST-1 B—all bind to the same site of FBF-2, we hypothesized that the intramolecular FBF-2 CT binding could compete with LST-1 A and LST-1 B binding. To assess that idea, we investigated how the CT affects the protein interaction affinities of the FBF-2 RBD to LST-1 A and LST-1 B, using isothermal titration calorimetry (ITC, Supplementary Table 3). No RNA was included in these experiments. We first measured the binding affinity of an isolated CT peptide and the FBF-2 RBD (no CT), by titrating the peptide, FBF-2^601–632, ... || Fig. 2 The FBF-2 CT competes with partner proteins for binding to the RBD. Representative isothermal titration calorimetry thermograms (top, differential power [DP] vs time) and corresponding titration curve-fitting graphs (bottom) are shown for interaction between a FBF-2 RBD and FBF-2 CT, c FBF-2 RBD + CT and LST-1 A, d FBF-2 RBD + CT and LST-1 B, e FBF-2 RBD and FBF-2 CT L610A, f FBF-2 RBD + CT L610A and LST-1 A, and g FBF-2 RBD + CT L610A and LST-1 B. Data points on the curve-fitting graphs are shown as open circles. b Previously reported mean Kd from two independent replicates with simila ... || We next compared the protein interaction affinities of LST-1 A or LST-1 B with either FBF-2 RBD + CT or RBD alone (Fig. 2c–g, Supplementary Table 3). For these experiments, we titrated the LST-1 peptide into an ITC cell containing either RBD + CT or RBD.

[4] = biological target: T4, FBF-2 RBD + CT L610A (Caenorhabditis elegans, UniProt Q09312, L610A); assay type: binding, C. elegans; conditions: pH 7.4
T4 construct: A cDNA fragment encoding C. elegans FBF-2 RBD + CT (residues 164-632) was cloned into the pSMT3 vector; His6-SUMO (N, cleaved yes); made in house; host or cells: E. coli BL21-CodonPlus (DE3)-RIL (as for wild type)
T4 sequence (Q09312 164-632 L610A): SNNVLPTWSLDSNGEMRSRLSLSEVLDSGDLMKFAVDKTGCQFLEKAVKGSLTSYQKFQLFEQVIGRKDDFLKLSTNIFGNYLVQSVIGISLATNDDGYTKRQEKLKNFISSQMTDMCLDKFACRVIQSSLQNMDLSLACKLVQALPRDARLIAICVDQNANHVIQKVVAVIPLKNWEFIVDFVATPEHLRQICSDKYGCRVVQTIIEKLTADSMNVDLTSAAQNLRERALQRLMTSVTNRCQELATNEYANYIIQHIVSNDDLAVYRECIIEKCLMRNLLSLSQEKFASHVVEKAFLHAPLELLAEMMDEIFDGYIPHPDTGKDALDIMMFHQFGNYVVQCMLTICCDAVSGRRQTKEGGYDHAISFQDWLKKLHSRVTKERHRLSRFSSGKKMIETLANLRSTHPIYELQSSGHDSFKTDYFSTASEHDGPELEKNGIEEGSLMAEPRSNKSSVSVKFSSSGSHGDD

T2 sequence (Q09312 164-632 E592A/D594A/E597A/E599A/E604A/E605A): as the sequence (Q09312 164-632 L610A) above, with E429A, D431A, E434A, E436A, E441A, E442A, A447L counted along it

## LST-1 B: LST-1 B peptide, residues 67–98, expressed in E. coli (SSSPQQRSGLRSQKLHLTYIEKNKRVRAMIPQ; left off: His6-SUMO, N-terminal, cleaved)
[1]; replicate 1
  -T∆S: 2.08 kcal/mol
  ∆G: -7.62 kcal/mol
  ∆H: -9.7 kcal/mol
[1]; replicate 2
  -T∆S: 2.27 kcal/mol
  ∆G: -7.36 kcal/mol
  ∆H: -9.61 kcal/mol
[2]; replicate 1
  -T∆S: 5.07 kcal/mol
  ∆G: -8.01 kcal/mol
  ∆H: -13.1 kcal/mol
[2]; replicate 2
  -T∆S: 3.59 kcal/mol
  ∆G: -7.91 kcal/mol
  ∆H: -11.5 kcal/mol
[3]; replicate 1
  -T∆S: 7.7 kcal/mol
  ∆G: -9.85 kcal/mol
  ∆H: -17.5 kcal/mol
[3]; replicate 2
  -T∆S: 7.17 kcal/mol
  ∆G: -9.87 kcal/mol
  ∆H: -17 kcal/mol
[4]
  ∆G: -9.85 kcal/mol
[4]; replicate 1, 20 °C
  -T∆S: 6 kcal/mol
  ∆G: -9.56 kcal/mol
  ∆H: -15.5 kcal/mol
[4]; replicate 2, 20 °C
  -T∆S: 6.98 kcal/mol
  ∆H: -16.8 kcal/mol
